Results on five molecules are retold here after patent publication US20190389910A1 (ORUM THERAPEUTICS, published 2019).

The target of assay [1] is human recombinant integrin αvβ6 (αv extracellular domain-acidic leucine zipper-His×6 with β6 extracellular domain-basic leucine zipper) (human) (UniProt P06756). The assay is described as follows: BLI (Octet), antibody on AHC biosensor, integrin αvβ6 as analyte. For orientation: Biolayer interferometry detects binding as a change in optical thickness at a sensor tip.
Assay [2] shares this target. Briefly: BLI (Octet), antibody captured on anti-human IgG Fc (AHC) biosensor, integrin αvβ6 3.1-100 nM as analyte, divalent cations.
Assay [3] addresses human recombinant integrin αvβ5 (αv extracellular domain-acidic leucine zipper-His×6 with β5 extracellular domain-basic leucine zipper) (human) (UniProt P06756). Briefly: BLI (Octet), antibody captured on anti-human IgG Fc (AHC) biosensor, integrin αvβ5 3.1-100 nM as analyte, divalent cations.
The target is the same in assay [4]. Briefly: BLI (Octet), antibody on AHC biosensor, integrin αvβ5 as analyte.
In assay [5] the target is heparan sulfate proteoglycan (HSPG) expressed on HeLa cells. Briefly: cell-based or functional assay.
Assay [6] deals with T1, EpCAM (epithelial cell adhesion molecule) expressed on the cell surface of human tumor cells (human, UniProt P16422 24-314).
T1 construct: whole, on cells; also called cell surface EpCAM; EpCAM receptor
T1 sequence (looked up): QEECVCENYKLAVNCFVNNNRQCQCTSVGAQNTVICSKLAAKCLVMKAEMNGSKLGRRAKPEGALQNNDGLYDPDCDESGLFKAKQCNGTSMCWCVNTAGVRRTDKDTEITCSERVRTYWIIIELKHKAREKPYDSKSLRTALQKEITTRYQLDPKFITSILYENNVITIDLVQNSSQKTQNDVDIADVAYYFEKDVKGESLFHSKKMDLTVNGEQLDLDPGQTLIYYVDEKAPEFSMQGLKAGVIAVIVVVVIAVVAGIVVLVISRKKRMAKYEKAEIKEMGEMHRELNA
Briefly: flow cytometry on HCT116 and SW480 cells; 100 nM antibody with 300 IU/mL heparin, Alexa488 anti-human Fc. The method, then:
Cell surface-binding levels of the indicated CTs, coincubated at 100 nM with 300 IU/mL heparin for 1 h at 4° C. with the indicated cells before analysis (lower panels). An isotype control is used as a negative control.
Then, each antibody was reacted with antibodies specific for human Fc to which Alexa488 (green fluorescence) was linked, at 4° C. for 30 min. After washing with PBS, the cells were analyzed by flow cytometry.
On the technique in general: A flow cytometer gives signals particle by particle.

By Kd is commonly meant a measure of binding affinity in units of concentration. As usually defined, the koff is a measure of how fast the partners let go of each other. For orientation: kon means the rate constant with which the complex forms.

Sequence of human recombinant integrin αvβ5 (αv extracellular domain-acidic leucine zipper-His×6 with β5 extracellular domain-basic leucine zipper) (human) (P06756 other isoform, or with tags, fused parts or gaps, chain 1 of 2): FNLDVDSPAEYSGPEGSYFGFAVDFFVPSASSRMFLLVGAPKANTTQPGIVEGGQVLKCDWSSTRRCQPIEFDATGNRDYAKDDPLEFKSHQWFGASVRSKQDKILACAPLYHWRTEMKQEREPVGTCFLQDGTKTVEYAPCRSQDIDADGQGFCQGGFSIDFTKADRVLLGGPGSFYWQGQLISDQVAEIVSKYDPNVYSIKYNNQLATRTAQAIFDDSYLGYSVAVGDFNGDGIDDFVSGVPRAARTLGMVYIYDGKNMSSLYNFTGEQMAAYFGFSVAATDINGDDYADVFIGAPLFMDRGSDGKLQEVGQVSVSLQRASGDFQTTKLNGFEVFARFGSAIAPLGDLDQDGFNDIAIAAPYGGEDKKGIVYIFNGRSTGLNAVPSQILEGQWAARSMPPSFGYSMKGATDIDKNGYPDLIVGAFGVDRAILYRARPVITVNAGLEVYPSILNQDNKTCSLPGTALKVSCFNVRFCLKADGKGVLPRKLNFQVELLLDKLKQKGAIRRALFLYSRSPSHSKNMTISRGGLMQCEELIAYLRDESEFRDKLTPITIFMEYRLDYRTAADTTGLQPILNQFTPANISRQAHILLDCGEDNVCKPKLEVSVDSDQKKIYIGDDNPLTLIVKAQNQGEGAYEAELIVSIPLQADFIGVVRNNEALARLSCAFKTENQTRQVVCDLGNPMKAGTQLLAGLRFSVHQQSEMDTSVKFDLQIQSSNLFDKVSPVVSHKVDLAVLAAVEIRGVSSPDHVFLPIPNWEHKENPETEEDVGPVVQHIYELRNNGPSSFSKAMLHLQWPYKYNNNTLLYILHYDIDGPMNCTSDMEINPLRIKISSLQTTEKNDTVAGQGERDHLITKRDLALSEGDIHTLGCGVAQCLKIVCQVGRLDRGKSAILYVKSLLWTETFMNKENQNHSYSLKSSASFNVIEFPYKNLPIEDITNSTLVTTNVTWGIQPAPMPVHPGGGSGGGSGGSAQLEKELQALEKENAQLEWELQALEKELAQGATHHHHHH
Sequence of human recombinant integrin αvβ5 (αv extracellular domain-acidic leucine zipper-His×6 with β5 extracellular domain-basic leucine zipper) (human) (chain, as listed by the source, chain 2 of 2): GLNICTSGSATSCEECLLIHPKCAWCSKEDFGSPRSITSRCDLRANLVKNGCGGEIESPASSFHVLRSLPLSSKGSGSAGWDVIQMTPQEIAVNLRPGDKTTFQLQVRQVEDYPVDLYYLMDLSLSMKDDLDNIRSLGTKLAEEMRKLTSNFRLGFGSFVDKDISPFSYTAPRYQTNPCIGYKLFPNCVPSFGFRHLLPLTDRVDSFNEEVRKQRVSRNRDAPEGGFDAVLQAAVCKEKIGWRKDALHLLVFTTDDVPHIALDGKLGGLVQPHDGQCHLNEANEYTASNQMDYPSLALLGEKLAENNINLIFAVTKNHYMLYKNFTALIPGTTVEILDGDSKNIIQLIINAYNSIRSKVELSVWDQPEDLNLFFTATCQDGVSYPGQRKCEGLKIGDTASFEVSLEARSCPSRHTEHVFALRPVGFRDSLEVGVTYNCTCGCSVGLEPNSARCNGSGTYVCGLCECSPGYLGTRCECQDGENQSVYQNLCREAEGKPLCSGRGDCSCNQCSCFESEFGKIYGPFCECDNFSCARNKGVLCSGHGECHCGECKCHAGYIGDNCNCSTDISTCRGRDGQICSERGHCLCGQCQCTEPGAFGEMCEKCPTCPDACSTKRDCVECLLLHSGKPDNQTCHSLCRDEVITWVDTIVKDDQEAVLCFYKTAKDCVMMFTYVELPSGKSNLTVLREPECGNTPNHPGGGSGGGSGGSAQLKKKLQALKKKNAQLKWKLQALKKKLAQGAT
Sequence of human recombinant integrin αvβ6 (αv extracellular domain-acidic leucine zipper-His×6 with β6 extracellular domain-basic leucine zipper) (human) (P06756 other isoform, or with tags, fused parts or gaps, chain 1 of 2): as the sequence (P06756 other isoform, or with tags, fused parts or gaps, chain 1 of 2) above
Sequence of human recombinant integrin αvβ6 (αv extracellular domain-acidic leucine zipper-His×6 with β6 extracellular domain-basic leucine zipper) (human) (chain, as listed by the source, chain 2 of 2): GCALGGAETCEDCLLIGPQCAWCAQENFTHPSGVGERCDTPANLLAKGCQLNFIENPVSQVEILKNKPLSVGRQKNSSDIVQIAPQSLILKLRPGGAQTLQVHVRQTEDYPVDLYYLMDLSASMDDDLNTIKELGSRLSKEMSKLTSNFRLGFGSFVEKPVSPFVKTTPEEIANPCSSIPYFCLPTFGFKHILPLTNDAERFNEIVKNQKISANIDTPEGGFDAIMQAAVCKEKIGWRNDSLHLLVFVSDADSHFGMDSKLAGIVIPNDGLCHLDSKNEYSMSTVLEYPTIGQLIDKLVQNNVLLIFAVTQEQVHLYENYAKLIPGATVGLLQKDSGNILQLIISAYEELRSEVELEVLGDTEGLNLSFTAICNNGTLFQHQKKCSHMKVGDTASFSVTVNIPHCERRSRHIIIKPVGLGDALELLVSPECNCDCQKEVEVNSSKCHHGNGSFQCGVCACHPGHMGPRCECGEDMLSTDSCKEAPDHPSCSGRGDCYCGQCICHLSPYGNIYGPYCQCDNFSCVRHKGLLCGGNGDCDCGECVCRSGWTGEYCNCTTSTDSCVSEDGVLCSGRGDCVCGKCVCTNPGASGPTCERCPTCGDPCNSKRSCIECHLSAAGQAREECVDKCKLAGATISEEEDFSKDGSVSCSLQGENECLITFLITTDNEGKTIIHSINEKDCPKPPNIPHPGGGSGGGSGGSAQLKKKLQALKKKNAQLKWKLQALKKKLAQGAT

B1: 6#6-Ras03 (antibody, part only; not given: RT22 heavy chain, light constant, V domains shown, not shown: another chain or arm of the molecule; a dimerising Fc or GST)
VL: LGPLPCQTRGDLFSLCHYMGSSSNDIQMTQSPSSLSASVGDRVTITCKSSQSLLNSRDGKNYLAWYQQKPGKAPKLLIYWASTRESGVPSRFSGSGSGTDFTLTISSLQPEDFATYFCQQYWYWMYTFGQGTKVEIK
modifications: chain 1: disulfide bond Cys6-Cys16 closes the cyclic peptide
For B1, the fold higher binding affinity than in4-Ras03 in assay [1] came out at 12 fold. Besides, in assay [2], the Kd stood at 0.843 nM, the koff is 0.000182 s⁻¹ and the on-rate (kon) is 216000 M⁻¹ s⁻¹.

B2: 5#1-Ras03 (antibody, part only; not given: RT22 heavy chain, constant regions, V domains shown, not shown: another chain or arm of the molecule; a dimerising Fc or GST; large carriers; small tags and cut ends)
VL: LPSGACVVRGDTFQCVSVGMGSSSNDIQMTQSPSSLSASVGDRVTITCKSSQSLLNSRDGKNYLAWYQQKPGKAPKLLIYWASTRESGVPSRFSGSGSGTDFTLTISSLQPEDFATYFCQQYWYWMYTFGQGTKVEIK
modifications: chain 1: disulfide bond Cys6-Cys15 closes the 5#1 cyclic peptide
Regarding B2, in assay [3], the Kd was 1.13 nM, the koff worked out at 6.39e-05 s⁻¹ and the association rate constant (kon) amounted to 56700 M⁻¹ s⁻¹. Besides, the fold higher affinity than in4-Ras03 in assay [4] came out at 2 fold.

B3: CT03e (antibody, V domains shown)
VH: EVQLVESGGGLVQPGGSLRLSCAASGYTFTSYVMHWVRQAPGKGLEWVSAINPYNDGNYYADSVKGRFTISRDNSRKTLYLQMNSLRAEDTAVYYCARGAYKRGYAMDYWGQGTTVTVSS
VL: DLVMTQSPSSLSASVGDRVTITCKSSQSLLNSRDGKNYLAWYQQKPGKAPKLLIYWASTRESGVPSRFSGSGSGTDFTLTISSLQPEDFATYFCQQYWYWMYTFGQGTKVEIKR
Turning to B3, in assay [5], the fluorescence intensity of antibody located in the cytoplasm (confocal microscopy, HeLa cells, 1 µM, 6 h) worked out at 19.6%.

B4: CT03b (antibody, V domains shown)
VH: EVQLVESGGGLVQPGGSLRLSCAASGYTFTSYVMHWVRQAPGKGLEWVSAINPYNDGNYYADSVKGRFTISRDNSRKTLYLQMNSLRAEDTAVYYCARGAYKRGYAMDYWGQGTTVTVSS
VL: DLVMTQSPSSLSASVGDRVTITCKSSQSLLNSRDGNTYLAWYQQKPGKAPKLLIYWLSYRASGVPSRFSGSGSGTDFTLTISSLQPEDFATYFCQQYWYWMYTFGQGTKVEIKR
With B4, the fluorescence intensity of antibody located in the cytoplasm (confocal microscopy, HeLa cells, 1 µM, 6 h) in assay [5] was 12.4%.

B5: CT05 (antibody, V domains shown)
VH: EVQLVESGGGLVQPGGSLRLSCAASGYTFTSYVMHWVRQAPGKGLEWVSAINPYNDGNYYADSVKGRFTISRDNSRKTLYLQMNSLRAEDTAVYYCARGAYKRGYAMDYWGQGTTVTVSS
VL: DIQMTQSPSSLSASVGDRVTITCKSSQSLLNSRDGKNYLAWYQQKPGKAPKLLIYDASNLETGVPSRFSGSGSGTDFTFTISSLQPEDIATYFCQQYWYWMYTFGGGTKVEIKR
notes: Intact IgG without a cyclic peptide; also called CT05 VL variant
In the case of B5, the binding result in assay [6] is given as “no binding (tested: 100 nM)”. The molecule further yielded a fluorescence intensity of internalized antibody relative to TMab4-WYW (confocal microscopy, HeLa cells, 1 µM, 6 h) in assay [5] of 17.3%.
